Results on eleven molecules are retold here after US20060034863A1 (CHEMOCENTRYX, published 2006).

For assay [1], the target named is T1, formyl peptide receptor like 1 (FPRL1) (human, UniProt P25090 1-351).
T1 sequence (looked up): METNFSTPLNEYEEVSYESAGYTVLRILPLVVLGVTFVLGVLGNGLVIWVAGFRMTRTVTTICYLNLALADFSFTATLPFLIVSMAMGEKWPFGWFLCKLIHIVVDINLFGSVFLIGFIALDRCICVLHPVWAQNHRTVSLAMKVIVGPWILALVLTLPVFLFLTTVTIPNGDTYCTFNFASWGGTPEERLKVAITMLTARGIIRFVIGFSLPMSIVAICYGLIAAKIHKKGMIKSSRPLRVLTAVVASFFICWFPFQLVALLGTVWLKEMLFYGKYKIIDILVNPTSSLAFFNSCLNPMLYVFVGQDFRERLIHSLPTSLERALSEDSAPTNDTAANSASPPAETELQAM
The assay is described as follows: cell-based or functional assay.

Assay [2] deals with MIP-1α binding sites on human monocytes (human). The assay is described as follows: displacement of 125I-MIP-1α from human monocytes, filter binding.
Assay [3] concerns the target T2, human chemokine receptor CCR1 (human, UniProt P32246 1-355).
T2 construct: whole, on cells; also called HEK293-CCR1 transfectants
T2 sequence (looked up): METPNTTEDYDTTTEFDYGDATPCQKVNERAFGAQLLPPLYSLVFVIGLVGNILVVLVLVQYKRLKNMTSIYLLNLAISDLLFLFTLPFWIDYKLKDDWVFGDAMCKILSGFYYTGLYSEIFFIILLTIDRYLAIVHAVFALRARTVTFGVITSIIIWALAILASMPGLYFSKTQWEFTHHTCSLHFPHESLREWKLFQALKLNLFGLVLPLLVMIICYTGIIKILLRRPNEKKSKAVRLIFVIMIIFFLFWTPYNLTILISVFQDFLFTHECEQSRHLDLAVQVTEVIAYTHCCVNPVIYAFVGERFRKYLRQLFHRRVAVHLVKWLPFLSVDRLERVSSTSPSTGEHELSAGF
Kind of assay: displacement of 125I-MIP-1α from HEK293-CCR1 cells, filter binding, 3 h at 4°C. How it is done: (§1) The binding characteristics of CCL23 variants was compared in human CCR1 expressing cells. […] Reactions mixtures were aspirated onto PEI-treated GF/B glass filters using a cell harvester (Packard). The filters were washed twice (25 mM HEPES, 500 mM NaCl, 1 mM CaCl₂, 5 mM MgCl₂, adjusted to pH 7.1). Scintillant (MicroScint-10; 35 μl) was added to dried filters and the filiters counted in a Packard Topcount scintillation counter. Data were analyzed and plotted using Prism software (GraphPad Software, San Diego, Calif.).

Assay [4] has as its target T1, formyl peptide receptor like 1 (FPRL1). Kind of assay: 125I-WKYMVm displacement on FPRL1-L1.2 transfectants and human monocytes. From the text:
(§2) The IC50 for each interaction was derived from non-linear least squares curve fitting of the data by using Prism software (GraphPad Software).

Assay [5] has the same target. The assay is described as follows: displacement of 0.01 nM 125I-WKYMVm from human monocytes, 3 h at 4°C.
From the text: as §2

Assay [6] addresses MIP-1α binding sites on human monocytes (human). Kind of assay: 125I-MIP-1α competition binding on human monocytes against HEK293-CCR1 cells.
Assay [7] has as its target T1, formyl peptide receptor like 1 (FPRL1). Kind of assay: cell-based or functional assay. The source holds these as a separate data set.
For assay [8], the target named is T2, human chemokine receptor CCR1. Kind of assay: displacement of 125I-MIP-1α from HEK293-CCR1 cells. The procedure:
as §1
For orientation: In a radioligand displacement assay an active substance lowers the binding of a labelled ligand.

Assay [9] concerns the target T1, formyl peptide receptor like 1 (FPRL1). The assay is described as follows: displacement of 0.01 nM 125I-WKYMVm from L1.2 FPRL1 cells, 3 h at 4°C.
From the text: as §2

As to MLWRRKIGPQMTLSHAAY [SHAAYtide (SEQ ID NO: 6)], the “Induction of Calcium Flux in FPRL1 L1.2 Cells (IC 50)” value (from here on “Induction of Calcium Flux”) in assay [1] was found to be 38 nM.
Still for that read-out and setting: then MLWRRKIGPQM [SHAAGtide truncated variant CCXP8 (SEQ ID NO: 8)], with 45 nM.

B1: CKβ8(1-99) (ligand)
chain: RVTKDAETEFMMSKLPLENPVLLDRFHATSADCCISYTPRSIPCSLLESYFETNSECSKPGVIFLTKKGRRFCANPSDKQVQVCMRMLKLDTRIKTRKN
notes: Human recombinant chemokine bought from R&D Systems; also called CCL23 variant; CKβ (1-99)
A word on the IC50: it is the concentration that gives 50% inhibition. As to B1, the values for the IC50 in [2] and in assay [3] were 10.3 nM and 64 nM, respectively. In addition, in assay [4], the binding result was “no binding”.
Regarding MLWRRKIGPQMTLSHAAG [SHAAGtide (SEQ ID NO: 1)], the “Induction of Calcium Flux” value in [1] turned out to be 150 nM.

B2: CKβ8-1(25-116) (ligand)
chain: MLWRRKIGPQMTLSHAAGFHATSADCCISYTPRSIPCSLLESYFETNSECSKPGVIFLTKKGRRFCANPSDKQVQVCMRMLKLDTRIKTRKN
notes: Human recombinant chemokine bought from R&D Systems; NH2-terminal truncated form of CKβ8-1; also called CCL23 variant
For B2, the IC50 in assay [5] was found to be 31 nM; in [2], 5.1 nM; in assay [3] it was 112 nM; in [9], 196 nM. In assay [6], this molecule had a fold higher MIP-1α displacement activity on monocytes than on HEK293-CCR1 cells of over 10 fold. Moreover, the “Induction of Calcium Flux” value in assay [1] came out at 11 nM. Also, the “EC50 of calcium flux dose response in FPRL1-L1.2 transfectants” value in [7] was 10 to 20 nM. Moreover, the “fold IC50 change against CKβ8-1(1-116)” value in assay [8] was 1 fold.
On to MLWRRKIGPQMTLSH [SHAAGtide truncated variant CCXP3 (SEQ ID NO: 3)], for which, in assay [1], the “Induction of Calcium Flux” value amounted to 68 nM.
The same measure, in the same setting: then MLWRRKIGPQMT [SHAAGtide truncated variant CCXP5 (SEQ ID NO: 5)], with 7.4 nM.

B3: MIP-1α (ligand, human, UniProt P10147 27-92, looked up)
chain: ADTPTACCFSYTSRQIPQNFIADYFETSSQCSKPGVIFLTKRSRQVCADPSEEWVQKYVSDLELSA
notes: also called macrophage inflammatory protein
Regarding B3, the IC50 was determined as 0.27 nM in assay [2] and 0.54 nM in [3].
With RRKIGPQMTLSHAAG [SHAAGtide truncated variant CCXP2 (SEQ ID NO: 2)], in assay [1], the “Induction of Calcium Flux” value is over 50000 nM.

B4: CKβ8(25-99) (ligand)
chain: RFHATSADCCISYTPRSIPCSLLESYFETNSECSKPGVIFLTKKGRRFCANPSDKQVQVCMRMLKLDTRIKTRKN
notes: Human recombinant chemokine bought from R&D Systems; also called CCL23 variant; CKβ (25-99)
Take B4: the figures for the IC50 in assay [2] and in assay [3] were 0.25 nM and 1.34 nM, respectively. Besides, the binding result in assay [4] is “no binding”. Also, in assay [8], the “fold IC50 change against CKβ8(1-99)” value came out at 40 fold.

B5: CKβ8-1(1-116) (ligand)
chain: RVTKDAETEFMMSKLPLENPVLLDMLWRRKIGPQMTLSHAAGFHATSADCCISYTPRSIPCSLLESYFETNSECSKPGVIFLTKKGRRFCANPSDKQVQVCMRMLKLDTRIKTRKN
notes: Human recombinant chemokine bought from R&D Systems; also called CCL23 variant
For the molecule B5, the IC50 in [2] turned out to be 55 nM; in [3], 206 nM. The binding result in assay [4] is listed as “no binding”.
